Target: T1, Qa-SNARE Vam3, full-length, wild-type (S. cerevisiae, UniProt Q12241 1-283)
T1 construct: Vam3, vacuolar Qa-SNARE, S. cerevisiae, full-length wild type with its transmembrane domain (residues 265-283); also called GST-Qa; source: isolated as described (Mima et al., 2008; Schwartz and Merz, 2009; Zucchi and Zick, 2011), reconstituted into proteoliposomes
T1 sequence (looked up): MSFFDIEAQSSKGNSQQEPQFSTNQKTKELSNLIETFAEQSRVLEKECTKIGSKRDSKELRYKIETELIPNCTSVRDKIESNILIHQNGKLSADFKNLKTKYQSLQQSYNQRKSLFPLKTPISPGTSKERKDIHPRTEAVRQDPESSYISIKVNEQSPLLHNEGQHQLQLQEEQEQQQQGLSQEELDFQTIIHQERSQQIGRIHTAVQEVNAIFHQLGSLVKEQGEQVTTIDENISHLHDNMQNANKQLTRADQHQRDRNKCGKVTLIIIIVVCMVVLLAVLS
Test: co-IP; proteoliposomes with Ypt7 and R mixed with proteoliposomes with Ypt7, Qa and Qb, with or without 50 nM HOPS and 4 μM Qc, 33 min; solubilised in modified RIPA buffer with 5 μM GST-R; anti-Qa antibody and protein A magnetic beads, 4°C, 2 h; immunoblot with antibodies to R, Qa and Vps33
Conditions: both partners purified

- binding result: binds
B1: R-SNARE (Nyv1), full-length, wild-type (natural protein, S. cerevisiae, UniProt Q12255 1-253, looked up)
chain: MKRFNVSYVEVIKNGETISSCFQPFQKNENYGTITSANEQITPVIFHNLIMDMVLPKVVPIKGNKVTKMSMNLIDGFDCFYSTDDHDPKTVYVCFTLVDMPKILPIRILSGLQEYESNATNELLSSHVGQILDSFHEELVEYRNQTLNSSGNGQSSNGNGQNTISDIGDATEDQIKDVIQIMNDNIDKFLERQERVSLLVDKTSQLNSSSNKFRRKAVNIKEIMWWQKVKNITLLTFTIILFVSAAFMFFYLW
notes: Nyv1, vacuolar R-SNARE, S. cerevisiae, full-length wild type with its membrane anchor; source: isolated as described (Mima et al., 2008; Schwartz and Merz, 2009; Zucchi and Zick, 2011), buffer exchanged into β-octylglucoside, reconstituted into proteoliposomes
